How the values were obtained:
Assay in all cases: cell-based or functional assay
[1] = target: SARS-CoV-2 オミクロンBA.5変異株のスパイクタンパク質 (authentic virus) (SARS-CoV-2 Omicron BA.5)
[2] = target: SARS-CoV-2 Delta変異株のスパイクタンパク質 (authentic virus) (SARS-CoV-2 Delta)
[3] = target: SARS-CoV-2 オミクロンBA.1変異株のスパイクタンパク質 (authentic virus) (SARS-CoV-2 Omicron BA.1)
[4] = target: SARS-CoV-2 オミクロンBA.2変異株のスパイクタンパク質 (authentic virus) (SARS-CoV-2 Omicron BA.2)
[5] = target: SARS-CoV-2 オミクロンBA.1.1変異株のスパイクタンパク質 (authentic virus) (SARS-CoV-2 Omicron BA.1.1)
[6] = target: SARS-CoV-2 D614G変異株のスパイクタンパク質 (authentic virus) (SARS-CoV-2 D614G, UniProt P0DTC2 14-1273)

Binder	IC50, プラーク減少中和試験 (PRNT) [1]	IC50, プラーク減少中和試験 (PRNT) [2]	IC50, プラーク減少中和試験 (PRNT) [3]	IC50, プラーク減少中和試験 (PRNT) [4]	IC50, プラーク減少中和試験 (PRNT) [5]	IC50, プラーク減少中和試験 (PRNT) [6]
MO1 (antibody, V domains shown) VH: EVQLVESGGGMVQPGRSLRLSCAASGFTFDDYAMHWVRQIPGKGLEWVSGISWNSGDIGYADSVKGRFTISRDNAKNSLHLQMNSLRAEDTALYYCAKDKTYDSPGYFLNSFDYWGQGTLVTVSS VL: DIQMTQSPSSLSASVGDRVTITCRASQGISSYLVWYQQKPGKAPKFLIYAASTLQSGVPSRFSGSGSGTDFTLTISSLQPEDFATYYCQQLYSYPITFGQGTRLEIK	0.0157 µg/mL	0.0158 µg/mL	0.004 µg/mL	0.0203 µg/mL	0.0106 µg/mL	0.0236 µg/mL
MO2 (antibody, V domains shown) VH: EVQLVESGGGLVKPGGSLSLSCVASGFTFSDYRMSWIRQAPGKGLEWVSYISSSSGYKDYADSVKGRFTISRDNAKNSLSLQMNSLRVEDTAVYYCARDVGVVTATPGYWGQGVPVSVSS VL: DIVMTQSPATLSVSPGERATLSCRASQSVGSNLAWYQQKPGQAPRLLIYDTSTRATGVPARFSGSGSGTDFTLTISSLQSEDFAVYLCHQYDQWPPAFGPGTRVDIK	–	0.0882 µg/mL	0.0177 µg/mL	0.151 µg/mL	0.036 µg/mL	0.0658 µg/mL

Source: patent publication JP2024051908A (dated 2024)
